Test results published in patent publication US10864269B2, “Therapeutic combinations comprising anti-CD73 antibodies and uses thereof” (MedImmune Limited, priority 2014, dated 2020).

T1: huCD73 (Homo sapiens, UniProt P21589)
T1 sequence (P21589 27-549): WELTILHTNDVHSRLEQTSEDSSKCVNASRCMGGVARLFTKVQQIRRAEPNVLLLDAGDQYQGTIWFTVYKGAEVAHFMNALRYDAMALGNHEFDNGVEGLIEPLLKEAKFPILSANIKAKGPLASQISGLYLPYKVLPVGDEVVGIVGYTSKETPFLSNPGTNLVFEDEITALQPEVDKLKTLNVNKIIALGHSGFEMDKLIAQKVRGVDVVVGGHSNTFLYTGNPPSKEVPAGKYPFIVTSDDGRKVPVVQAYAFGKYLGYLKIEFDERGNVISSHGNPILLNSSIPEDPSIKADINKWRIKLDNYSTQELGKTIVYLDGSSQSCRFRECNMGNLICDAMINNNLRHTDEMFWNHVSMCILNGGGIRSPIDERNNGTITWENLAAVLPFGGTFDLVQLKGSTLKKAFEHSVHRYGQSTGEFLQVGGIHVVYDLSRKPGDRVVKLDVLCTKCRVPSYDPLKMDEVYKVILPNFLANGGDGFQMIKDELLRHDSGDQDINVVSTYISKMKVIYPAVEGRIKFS

T2: muCD73 (Mus musculus, UniProt Q61503)
T2 sequence (Q61503 29-551): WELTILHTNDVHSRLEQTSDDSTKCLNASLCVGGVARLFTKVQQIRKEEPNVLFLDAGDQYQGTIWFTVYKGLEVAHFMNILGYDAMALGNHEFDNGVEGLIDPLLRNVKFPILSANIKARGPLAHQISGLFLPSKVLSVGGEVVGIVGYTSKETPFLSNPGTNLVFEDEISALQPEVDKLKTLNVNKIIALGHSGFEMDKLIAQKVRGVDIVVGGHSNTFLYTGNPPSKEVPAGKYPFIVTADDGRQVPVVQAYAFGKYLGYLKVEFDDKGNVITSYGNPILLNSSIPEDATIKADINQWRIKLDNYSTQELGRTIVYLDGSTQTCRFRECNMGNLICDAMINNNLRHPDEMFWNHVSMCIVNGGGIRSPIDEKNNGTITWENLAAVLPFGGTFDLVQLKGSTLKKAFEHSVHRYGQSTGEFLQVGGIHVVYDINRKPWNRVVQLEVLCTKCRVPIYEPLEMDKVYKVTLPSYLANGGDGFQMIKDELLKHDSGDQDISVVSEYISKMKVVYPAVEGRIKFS

T3: native CD73, MDA-MB-231 cells (Homo sapiens, UniProt P21589)
T3 construct: native CD73 expressed on human, murine, and cynomolgus monkey cell lines; endogenous in cells; host or cells: MDA-MB-231
T3 sequence (P21589 27-549): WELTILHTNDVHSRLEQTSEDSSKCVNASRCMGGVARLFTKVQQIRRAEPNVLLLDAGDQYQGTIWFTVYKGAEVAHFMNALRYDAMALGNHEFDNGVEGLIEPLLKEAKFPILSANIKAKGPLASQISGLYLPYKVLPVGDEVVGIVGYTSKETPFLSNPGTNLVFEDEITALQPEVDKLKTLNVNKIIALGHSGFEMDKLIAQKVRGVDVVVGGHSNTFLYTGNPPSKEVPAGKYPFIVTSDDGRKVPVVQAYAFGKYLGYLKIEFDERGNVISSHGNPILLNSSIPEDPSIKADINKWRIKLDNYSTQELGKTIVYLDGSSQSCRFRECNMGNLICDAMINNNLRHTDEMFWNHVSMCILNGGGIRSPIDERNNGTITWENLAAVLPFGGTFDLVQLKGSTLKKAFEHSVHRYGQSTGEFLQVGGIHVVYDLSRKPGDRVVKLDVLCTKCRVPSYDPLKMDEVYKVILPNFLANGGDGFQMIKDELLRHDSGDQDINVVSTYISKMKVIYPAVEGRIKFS

T4: murine CD73 (Mus musculus, UniProt Q61503)
T4 sequence (Q61503 29-551): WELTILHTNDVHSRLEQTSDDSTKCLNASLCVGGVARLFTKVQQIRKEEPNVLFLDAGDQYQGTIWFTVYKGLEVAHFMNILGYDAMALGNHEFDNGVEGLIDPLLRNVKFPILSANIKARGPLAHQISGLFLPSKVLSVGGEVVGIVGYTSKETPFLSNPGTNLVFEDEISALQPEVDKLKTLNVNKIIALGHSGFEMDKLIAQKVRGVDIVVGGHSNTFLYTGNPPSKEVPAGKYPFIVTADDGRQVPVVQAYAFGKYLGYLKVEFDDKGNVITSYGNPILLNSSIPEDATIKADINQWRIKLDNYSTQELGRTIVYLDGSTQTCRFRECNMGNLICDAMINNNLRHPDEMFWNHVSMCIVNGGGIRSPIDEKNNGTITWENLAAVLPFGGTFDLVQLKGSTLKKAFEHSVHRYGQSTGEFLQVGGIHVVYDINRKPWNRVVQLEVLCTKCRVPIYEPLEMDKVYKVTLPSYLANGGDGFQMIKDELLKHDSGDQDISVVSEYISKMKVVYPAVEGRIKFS


Legend:
huCD73 [1] = target: T1, huCD73; test: ELISA binding of Fab variants to human CD73; settings: combinatorial Fab library clones, capture ELISA and direct ELISA
From the text: (§1) CD730010GL9 IgG1-TM was enhanced by screening Fab libraries comprising variant CDR sequences with single amino acid mutations. Each of the 61 positions in the six CDRs was individually randomized to 19 amino acids (all natural amino acids except Cysteine), generating a library with a theoretical diversity of 1159 unique clones (19 amino acids per position times 61 positions). Bacterial Fab fragments were produced from 4224 clones of the library and screened for binding to human and murine CD73 protein by capture ELISA (Assay 2). 180 clones with increased binding signal compared to parental CD730010 GL9 IgG1-TM were selected and the mutations in the VH or VL domain were identified by DNA sequencing. The Fab concentration in the bacterial supernatants was normalized and the binding of the normalized supernatants to human and murine CD73 protein was evaluated by direct ELISA (Assay 1). Table 11 lists selected beneficial single amino acid substitutions and their effect on binding to recombinant CD73 protein.
(§2) To further improve the affinity of the anti-CD73 antibody, several single amino acid changes which improved binding when compared to parental CD730010 GL9 were combined to create a combinatorial Fab library (Assay 4). Fab fragments of 4224 clones of the combinatorial library were produced in E. coli and screened for binding to human and murine CD73 protein by capture ELISA. […]
(§3) 384-well ELISA plates were coated with about 1.5 ng/well recombinant CD73 protein, blocked with 1% BSA/0.1% Tween20/PBS and incubating with antibody samples for 90 minutes at room temperature. […] HRP activity was detected with tetra methyl benzidine (TMB) substrate and the reaction was stopped with 1 M HCl. Plates were read at 450 nm.
as §3, with “3” for “1.5”, “sheep-anti-human Fd antibody (for screening antibodies in Fab format),” for “recombinant CD73 protein,”, “with” for “with antibody”

muCD73 = target: T2, muCD73; test: ELISA binding of Fab variants to murine CD73; settings: combinatorial Fab library clones, capture ELISA and direct ELISA
From the text: as §1, §2, §3
as §3, with “3” for “1.5”, “sheep-anti-human Fd antibody (for screening antibodies in Fab format),” for “recombinant CD73 protein,”, “with” for “with antibody”

[2] = target: T3, native CD73, MDA-MB-231 cells; test: Flow cytometry binding to native CD73, MDA-MB-231 cells; settings: as measured by flow cytometry; read-out: KD, CD73 on the surface of MB-MDA-231 cells
Method: (§4) Binding of MEDI9447 to native CD73 expressed on human, murine, and cynomolgus monkey cell lines was characterized by flow cytometry. The cells were incubated with various concentrations of MEDI9447 and antibody binding was monitored with and fluorophore-labeled anti-human Fc antibody. A plot of the median fluorescence intensity as a function of the MEDI9447 concentration was fitted nonlinearly using a one-site binding isotherm model to calculate the equilibrium dissociation constant.
(§5) The affinity of enhanced anti-CD73 antibodies (in IgG1-TM format) to human, murine, and cynomolgus CD73 was determined by flow cytometry and surface plasmon resonsance (SPR) (Table 13). The enhanced antibodies had pM affinity to cellular and recombinant CD73 from the three species.
(§6) All flow cytometry experiments were run at 4C and reagents were prepared in PBS/1% FBS buffer. 10,000 cells were incubated with test antibody in 50 uL volume for 4 hours. Cells were washed twice and incubated in 50 uL goat anti-human IgGFc-AlexaFluor647 conjugate for 15 minutes. Cells were washed, resuspended in buffer supplemented with Dapi, and analyzed on a flow cytometer. […] For the determination of KD values, a plot of the median fluorescence intensity as a function of test antibody concentration was fitted nonlinearly using a one site binding isotherm model.

native CD73, MK-1 cells = test: Flow cytometry binding to native CD73, MK-1 cells; settings: as measured by flow cytometry; read-out: KD, CD73 on the surface of cynomolgus MK-1 cells
Method: as §4, §5, §6

huCD73 [3] = target: T1, huCD73; test: Solution binding, human CD73; settings: as measured by solution binding
murine CD73 = target: T4, murine CD73; test: Solution binding, murine CD73; settings: as measured by solution binding
cynomolgus CD73 = test: Solution binding, cynomolgus CD73; settings: as measured by solution binding

Molecule | binding to human CD73 (huCD73 [1]) | binding to murine CD73 (muCD73) | Kd [2] [nM] | Kd (native CD73, MK-1 cells) [nM] | Kd (huCD73 [3]) [nM] | Kd (murine CD73) [nM] | Kd (cynomolgus CD73) [nM]
C2: combinatorial library clone of CD730010 GL9; VL SEQ ID NO: 61, VH SEQ ID NO: 75 (antibody, V domains shown) VH: EVQLLESGGGLVQPGGSLRLSCAASGFTFSSYAYSWVRQAPGKGLEWVSLIWGSWGSTYYADSVKGRFTISRDNSKNTLYLQMNSLRAEDTAVYYCARLGYSTIDMWGRGTLVTVSS VL: QSVLTQPPSASGTPGQRVTISCSGSLSNIGRNPVNWYQQLPGTAPKLLIYLDNLRLGGVPDRFSGSKSGTSASLAISGLQSEDEADYYCATWDDSLKGWLFGGGTKLTVL | strong binding | strong binding |  |  |  |  | 
G10: combinatorial library clone of CD730010 GL9; VL SEQ ID NO: 63, VH SEQ ID NO: 77 (antibody, V domains shown) VH: EVQLLESGGGLVQPGGSLRLSCAASGFTFSSYAYSWVRQAPGKGLEWVSAISGSWGRTYYADSVKGRFTISRDNSKNTLYLQMNSLRAEDTAVYYCARLGYSTIDLWGRGTLVTVSS VL: QSVLTQPPSASGTPGQRVTISCSGSLSNIGRNDVNWYQQLPGTAPKLLIYLNNQRLGGVPDRFSGSKSGTSASLAISGLQSEDEADYYCATWDDSLKGWLFGGGTKLTVL | strong binding | strong binding |  |  |  |  | 
D3: combinatorial library clone of CD730010 GL9; VL SEQ ID NO: 62, VH SEQ ID NO: 76 (antibody, V domains shown) VH: EVQLLESGGGLVQPGGSLRLSCAASGFTFSSYAYSWVRQAPGKGLEWVSAISGSGGRTYYADSVKGRFTISRDNSKNTLYLQMNSLRAEDTAVYYCARLGYSTIDLWGRGTLVTVSS VL: QSVLTQPPSASGTPGQRVTISCSGSLSNIGRNPVNWYQQLPGTAPKLLIYLDNLRLSGVPDRFSGSKSGTSASLAISGLQSEDEADYYCATWDDSLIGWLFGGGTKLTVL | strong binding | strong binding |  |  |  |  | 
CD730002 2C5: IgG1 with CD730002-derived VL of SEQ ID NO: 88 and VH of SEQ ID NO: 87 (antibody, V domains shown) VH: EVQLLESGGGLVQPGGSLRLSCAASGFTFSSYAMSWVRQAPGKGLEWVSAISGSGGSTYYADSVKRRFTISRDNSKNTLYLQMNSLRAEDTAVYYCARDKGYYWYMDVWGQGTMVTVSS VL: QSVLTQPPSVSVSPGQTASITCSGDKVGDKYASWYQQKPGQSPVLVIYEDTKRLSGIPERFSGSNSGNTATLTISGTQAMDEADYYCQAWDTSFWVFGGGTKLTVL |  |  | ~0.08 | ~0.06 | ~0.08 | ~1.5 | ~0.1
